Measured values: patent publication US20260184748A1 (University of Pennsylvania, published 2026)
Where no end group is shown, it is not given here.

Columns and labels:
Assay in all cases: cell-based or functional assay
PTGFR = PTGFR (UniProt P43088 1-359)
TACR2 = target: T1, TACR2 (UniProt P21452 1-398)
T1 sequence (looked up): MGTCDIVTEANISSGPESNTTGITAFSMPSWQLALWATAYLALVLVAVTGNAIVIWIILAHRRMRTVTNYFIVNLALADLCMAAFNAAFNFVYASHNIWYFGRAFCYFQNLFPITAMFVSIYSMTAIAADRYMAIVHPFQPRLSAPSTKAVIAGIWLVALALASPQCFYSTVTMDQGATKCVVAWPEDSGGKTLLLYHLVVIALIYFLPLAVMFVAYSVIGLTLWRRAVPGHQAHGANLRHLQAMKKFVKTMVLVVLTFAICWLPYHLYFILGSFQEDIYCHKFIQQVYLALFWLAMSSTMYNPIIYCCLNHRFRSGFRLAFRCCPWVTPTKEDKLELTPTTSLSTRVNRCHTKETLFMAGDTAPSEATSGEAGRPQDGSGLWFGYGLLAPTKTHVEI

F2RL3 = target: T2, F2RL3 (UniProt Q96RI0 18-385, limits assumed)
T2 sequence (looked up): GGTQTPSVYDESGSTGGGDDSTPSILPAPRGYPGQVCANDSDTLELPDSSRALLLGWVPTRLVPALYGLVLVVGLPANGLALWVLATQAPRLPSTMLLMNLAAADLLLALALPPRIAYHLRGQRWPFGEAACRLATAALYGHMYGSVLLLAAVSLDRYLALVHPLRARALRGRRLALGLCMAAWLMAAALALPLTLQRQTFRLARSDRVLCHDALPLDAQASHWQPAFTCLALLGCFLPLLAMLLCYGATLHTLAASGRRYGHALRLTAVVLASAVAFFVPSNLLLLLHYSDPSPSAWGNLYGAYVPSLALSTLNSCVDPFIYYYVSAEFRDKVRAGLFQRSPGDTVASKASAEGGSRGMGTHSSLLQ

CXCR5 = target: T3, CXCR5 (UniProt P32302 1-372)
T3 sequence (looked up): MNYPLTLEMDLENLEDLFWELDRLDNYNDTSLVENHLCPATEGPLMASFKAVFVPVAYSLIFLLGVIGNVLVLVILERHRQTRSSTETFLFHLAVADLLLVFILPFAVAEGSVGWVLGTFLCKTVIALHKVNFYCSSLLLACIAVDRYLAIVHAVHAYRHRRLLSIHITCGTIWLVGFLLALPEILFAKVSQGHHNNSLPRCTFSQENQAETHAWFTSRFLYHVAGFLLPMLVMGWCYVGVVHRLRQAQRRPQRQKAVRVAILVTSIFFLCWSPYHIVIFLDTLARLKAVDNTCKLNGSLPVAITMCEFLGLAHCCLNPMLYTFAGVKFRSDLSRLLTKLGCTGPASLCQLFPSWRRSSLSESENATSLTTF

ADRA1B = target: T4, ADRA1B (UniProt P35368 1-520)
T4 sequence (looked up): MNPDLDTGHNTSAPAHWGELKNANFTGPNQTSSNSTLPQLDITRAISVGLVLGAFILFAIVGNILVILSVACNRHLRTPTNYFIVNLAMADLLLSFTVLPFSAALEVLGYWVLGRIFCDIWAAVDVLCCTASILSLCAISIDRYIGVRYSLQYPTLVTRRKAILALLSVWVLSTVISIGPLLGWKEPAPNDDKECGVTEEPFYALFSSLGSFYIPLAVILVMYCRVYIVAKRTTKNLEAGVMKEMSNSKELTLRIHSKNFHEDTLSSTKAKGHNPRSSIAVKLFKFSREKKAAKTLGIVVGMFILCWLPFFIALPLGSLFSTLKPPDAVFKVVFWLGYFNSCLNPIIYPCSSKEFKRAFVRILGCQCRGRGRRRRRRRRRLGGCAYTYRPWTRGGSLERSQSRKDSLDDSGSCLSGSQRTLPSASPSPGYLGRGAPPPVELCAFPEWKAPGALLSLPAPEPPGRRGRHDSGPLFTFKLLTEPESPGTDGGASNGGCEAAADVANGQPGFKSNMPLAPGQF

ADCYAP1R1 = target: T5, ADCYAP1R1 (UniProt P41586 21-468, limits assumed)
T5 sequence (looked up): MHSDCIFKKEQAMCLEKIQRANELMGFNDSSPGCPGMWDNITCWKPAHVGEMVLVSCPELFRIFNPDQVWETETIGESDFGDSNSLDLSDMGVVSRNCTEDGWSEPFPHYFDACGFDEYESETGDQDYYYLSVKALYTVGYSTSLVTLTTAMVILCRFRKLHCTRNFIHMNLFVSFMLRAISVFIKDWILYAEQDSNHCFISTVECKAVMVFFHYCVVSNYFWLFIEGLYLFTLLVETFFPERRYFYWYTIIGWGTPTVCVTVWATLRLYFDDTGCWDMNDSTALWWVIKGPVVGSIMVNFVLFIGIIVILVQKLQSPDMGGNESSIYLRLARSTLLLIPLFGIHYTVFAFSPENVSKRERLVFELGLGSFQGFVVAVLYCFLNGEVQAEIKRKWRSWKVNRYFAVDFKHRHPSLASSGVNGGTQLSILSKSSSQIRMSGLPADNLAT

CHRM5 = target: T6, CHRM5 (UniProt P08912 1-532)
T6 sequence (looked up): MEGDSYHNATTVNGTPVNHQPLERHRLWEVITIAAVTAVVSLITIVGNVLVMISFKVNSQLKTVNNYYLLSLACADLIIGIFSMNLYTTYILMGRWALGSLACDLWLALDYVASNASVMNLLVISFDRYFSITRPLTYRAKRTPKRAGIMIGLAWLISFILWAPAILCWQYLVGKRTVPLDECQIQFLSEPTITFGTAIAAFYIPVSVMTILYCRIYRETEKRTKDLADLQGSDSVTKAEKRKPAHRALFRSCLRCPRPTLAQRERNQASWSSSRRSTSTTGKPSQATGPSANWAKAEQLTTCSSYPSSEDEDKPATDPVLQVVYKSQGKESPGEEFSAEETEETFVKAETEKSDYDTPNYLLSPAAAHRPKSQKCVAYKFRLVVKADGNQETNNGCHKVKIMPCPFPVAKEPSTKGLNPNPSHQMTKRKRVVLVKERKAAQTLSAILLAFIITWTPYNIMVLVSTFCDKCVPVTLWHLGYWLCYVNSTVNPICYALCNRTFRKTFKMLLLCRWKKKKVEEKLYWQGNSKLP

OPRK1 = OPRK1 (UniProt P41145 1-380)
Sequence of OPRK1 (P41145 whole entry): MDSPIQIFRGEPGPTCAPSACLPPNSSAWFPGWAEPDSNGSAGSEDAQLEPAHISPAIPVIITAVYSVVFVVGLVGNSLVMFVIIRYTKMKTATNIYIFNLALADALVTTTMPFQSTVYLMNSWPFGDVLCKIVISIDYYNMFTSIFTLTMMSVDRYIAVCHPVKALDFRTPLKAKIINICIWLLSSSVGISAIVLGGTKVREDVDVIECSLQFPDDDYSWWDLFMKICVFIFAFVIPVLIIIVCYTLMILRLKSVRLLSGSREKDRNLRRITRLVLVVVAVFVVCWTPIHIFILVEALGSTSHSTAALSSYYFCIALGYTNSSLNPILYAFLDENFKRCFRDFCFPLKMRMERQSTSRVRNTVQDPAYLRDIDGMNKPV

NPFFR1 = NPFFR1 (UniProt Q9GZQ6 1-430)
Sequence of NPFFR1 (Q9GZQ6 whole entry): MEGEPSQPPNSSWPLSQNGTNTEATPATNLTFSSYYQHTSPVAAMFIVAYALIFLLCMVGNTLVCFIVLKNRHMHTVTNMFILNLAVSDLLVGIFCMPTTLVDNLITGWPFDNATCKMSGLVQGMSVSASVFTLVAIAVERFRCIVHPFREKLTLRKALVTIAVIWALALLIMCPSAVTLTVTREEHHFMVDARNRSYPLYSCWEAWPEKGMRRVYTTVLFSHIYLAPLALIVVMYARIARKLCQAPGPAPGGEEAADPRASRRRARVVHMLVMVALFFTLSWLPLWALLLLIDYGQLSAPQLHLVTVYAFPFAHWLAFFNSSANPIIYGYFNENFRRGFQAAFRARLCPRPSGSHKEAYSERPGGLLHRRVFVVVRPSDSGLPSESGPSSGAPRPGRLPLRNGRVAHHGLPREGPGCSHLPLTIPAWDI

PROKR2 = PROKR2 (UniProt Q8NFJ6 1-384)
Sequence of PROKR2 (Q8NFJ6 whole entry): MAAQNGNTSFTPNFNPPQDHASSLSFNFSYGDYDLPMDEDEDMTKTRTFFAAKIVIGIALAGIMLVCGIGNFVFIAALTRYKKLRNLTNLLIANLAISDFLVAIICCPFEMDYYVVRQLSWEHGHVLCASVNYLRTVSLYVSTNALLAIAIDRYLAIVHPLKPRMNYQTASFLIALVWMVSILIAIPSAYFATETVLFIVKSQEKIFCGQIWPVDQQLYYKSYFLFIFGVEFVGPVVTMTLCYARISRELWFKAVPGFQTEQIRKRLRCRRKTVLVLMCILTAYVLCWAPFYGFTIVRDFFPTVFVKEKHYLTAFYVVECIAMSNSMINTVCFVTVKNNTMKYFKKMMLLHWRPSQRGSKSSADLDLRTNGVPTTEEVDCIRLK

Sequence of PTGFR (P43088 whole entry): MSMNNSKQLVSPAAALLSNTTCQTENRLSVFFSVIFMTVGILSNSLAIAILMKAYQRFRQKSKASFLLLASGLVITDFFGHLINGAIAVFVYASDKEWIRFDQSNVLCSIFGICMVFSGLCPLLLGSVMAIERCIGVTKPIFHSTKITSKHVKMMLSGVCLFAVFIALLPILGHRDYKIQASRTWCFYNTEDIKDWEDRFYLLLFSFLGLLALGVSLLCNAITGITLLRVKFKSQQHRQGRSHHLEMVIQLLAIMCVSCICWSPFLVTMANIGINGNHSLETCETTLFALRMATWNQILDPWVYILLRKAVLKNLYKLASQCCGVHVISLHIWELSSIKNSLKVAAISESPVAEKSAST

## QATVGDVNTDRPGLLDLK (also: synthesised on Rink amide resin, C-terminal amide not given here outright) [octadecaneuropeptide (ODN)]
PTGFR
  % Activity, arrestin, antagonist mode, 2.5 uM: -8.4%
TACR2
  % Activity, arrestin, antagonist mode, 2.5 uM: 8.3%
F2RL3
  % Activity, arrestin, antagonist mode, 2.5 uM: -25.9%
CXCR5
  % Activity, arrestin, antagonist mode, 2.5 uM: -18.9%
ADRA1B
  % Activity, arrestin, antagonist mode, 2.5 uM: 0.1%
ADCYAP1R1
  % Activity, arrestin, antagonist mode, 2.5 uM: 0.9%
CHRM5
  % Activity, arrestin, antagonist mode, 2.5 uM: -1.5%
OPRK1
  % Activity, arrestin, antagonist mode, 2.5 uM: -4.5%
NPFFR1
  % Activity, arrestin, antagonist mode, 2.5 uM: -4.2%
PROKR2
  % Activity, arrestin, antagonist mode, 2.5 uM: -17.5%
